Experimental data: patent US12558435B2, “Transient inhibition of p53 in gene therapy” (Ospedale San Raffaele S.R.L., priority 2018, dated 2026)

How the values were obtained:
[1] = tested on: human CD34+ cells; test: Cell cycle analysis by Hoechst 33342 staining; type: cell-based; conditions: for cell cycle states (G1 to S/G2/M): bulk treated cells, 12-24 hours, FIG. 14H
Experimental: Cell cycle was analysed by flow cytometry (CytoFLEX LX; Beckman Coulter) at 12-24 hours post-editing by collecting 0.5-1×10^5 total HSPCs in culture. Cells were washed with PBS+2% FBS and stained by using 10 μg/ml Hoechst 33342 (Sigma-Aldrich) in PBS+2% FBS for 0.5-1 hour in final volume equal to 200 μl.

[2] = tested on: APOBEC3H; test: TaqMan assay of APOBEC3H gene expression; type: cell-based, human; conditions: 24 hours post-editing; FIG. 16G
Text: (§1) For gene expression analyses, total RNA was extracted using the RNeasy Plus Micro Kit (QIAGEN). cDNA was synthetized with SuperScript VILO IV cDNA Synthesis Kit (Invitrogen) and used for Q-PCR in a Viia7 Real-time PCR thermal cycler using TaqMan Gene Expression Assays (Applied Biosystems) mapping to CDKN1A, RPS27L, PHLDA3, APOBEC3H, and HPRT as normalizer. The relative expression of each gene was first normalized to HPRT expression and then represented as fold change relative to the mock-treated sample.

[3] = tested on: human primary T cells; test: Gene editing of human primary T cells; type: cell-based; conditions: 20 days after treatment; bulk CD3+, CD4 and CD8 subpopulations; FIG. 9B
Text: Finally, we tested the delivery of the E4orf6/7 mRNA together with the Cas9 ribonucleoprotein (RNP) into human primary T cells (peripheral blood derived total CD3+ cells) before AAV6 transduction for the delivery of the donor DNA template (FIG. 9A).

[4] = tested on: human CD34+ cells transplanted into NSG mice; test: Xenotransplantation of edited human CD34+ cells in NSG mice; type: in vivo
Experimental: For transplantation, 3×10^5 CD34+ cells treated for editing at day 5 of culture were injected intravenously into NSG mice after sub-lethal irradiation (150-180 cGy). Sample size was determined by the total number of available treated cells. Mice were attributed to each experimental group randomly. Human CD45+ cell engraftment and the presence of gene-edited cells were monitored by serial collection of blood from the mouse tail and, at the end of the experiment (>20 weeks after transplantation), BM and spleen were harvested and analyzed.
NOD-SCID-IL2Rg^−/− (NSG) mice were purchased from The Jackson Laboratory and were maintained in specific-pathogen-free (SPF) conditions. The procedures involving animals were designed and performed with the approval of the Animal Care and Use Committee of the San Raffaele Hospital (IACUC #749) and communicated to the Ministry of Health and local authorities according to Italian law. For transplantation, 1.5-3×10^5 (for primary) or 2×10^6 (for secondary) CD34^+ treated cells at 24 hours post-editing protocol were injected intravenously into NSG mice after sub-lethal irradiation (180 cGy). Sample size was determined by the total number of available treated cells. Mice were attributed to each experimental group randomly. Human CD45^+ cell engraftment and the percentage of edited GFP^+ cells were monitored by serial collection of blood from the mouse tail over the weeks post-transplantation and at the end of the experiment (18-20 weeks post-transplantation) both spleen and bone-marrow were harvested and analysed.

[5] = tested on: p53-target genes (CDKN1A, PHLDA3, RPS27L, APOBEC3H); test: TaqMan expression of p53-target genes in edited CD34+ cells; type: cell-based, human; conditions: 24 hrs after electroporation; FIG. 3B
Text: as §1

[6] = tested on: HDR-edited human cells in NSG mice; test: Barcoding-based clonal tracking of edited cells in transplanted NSG mice; type: in vivo; conditions: AAVS1; FIG. 12E
Text: The barcoded AAV6 donor template targeting the AAVS1 locus was obtained by subcloning the degenerated sequence into the previously reported AAVS1 AAV6 transfer vector plasmid downstream of the polyadenylation sequence. Briefly, a ssODN embedding the random sequence flanked by the unique cloning restriction sites (Bsu36l and Sphl) was obtained from Sigma Aldrich. The degenerated region was designed to avoid any undesired cutting by cloning restriction enzymes. To generate the complementary strand, 50 pmol of the ssODN were amplified with 10 cycles of PCR with Easy-A High-Fidelity enzyme (Agilent Technologies) using the appropriate forward and reverse primers according to the manufacturer's instructions. The amplified product was purified with MinElute PCR Purification kit (QIAGEN), digested with the restriction enzymes and checked by capillary electrophoresis. 2 μg of the Bsu36l/Sphl-digested AAVS1 HDR donor template were ligated with the digested insert (molar ratio 1:7) using T4 DNA Ligase (NEB) by scaling up the manufacturer's protocol. […]
PCR amplicons for each individual sample were generated by one-step PCR using Taq G2 Hot Start Polymerase (Promega). […] PCR library amplicons were separately purified using MinElute PCR Purification kit (QIAGEN) and quality was assessed by Agilent Tapestation (Agilent Technologies). […]

[7] = tested on: human CD34+ cells; test: Cell growth curve of edited CD34+ cells; type: cell-based
[8] = tested on: human CD34+ cells transplanted into NSG mice; test: Xenotransplantation of edited human CD34+ cells in NSG mice; type: in vivo; conditions: limit cells dose T0eq=1×10^5/mouse; FIG. 19A

B1: E4orf6/7: adenoviral protein from adenovirus serotype 5 E4 gene (SEQ ID No. 2), delivered as mRNA (protein)
chain: MTTSGVPFGMTLRPTRSRLSRRTPYSRDRLPPFETETRATILEDHPLLPECNTLTMHNAWTSPSPPVKQPQVGQQPVAQQLDSDMNLSELPGEFINITDERLARQETVWNITPKNMSVTHDMMLFKASRGERTVYSVCWEGGGRLNTRVL
modifications: delivered as mRNA; example amino acid sequence of Ad5-E4orf6/7
cell cycle states (G1 to S/G2/M) [1]: significant transition from G1 phase to S/G2/M phases | APOBEC3H expression [2]: significantly down-regulated | increase in the percentage of GFP+ cells compared to standard [3]: 1.5 fold | human CD45+ cell engraftment in bloodstream, between groups ([4]; AAVS1, T0eq=3×10^5/mouse, FIG. 17B): did not show any statistical significance | increase of the fraction of circulating edited cells ([4]; AAVS1, T0eq=3×10^5/mouse, primary transplant, FIG. 17C): 1.5 fold | fraction of edited cells (GFP+ or HDR+) in blood, hematopoietic organs and blood lineages ([4]; AAVS1 edited CB CD34+, FIG. 11): significant higher fraction of edited cells | overall level of engraftment of the human cells ([4]; AAVS1 edited CB CD34+, FIG. 11): does not affect the overall level of engraftment

B2: GSE56: p53 dominant negative peptide (SEQ ID No. 9), transiently overexpressed from electroporated mRNA (protein)
chain: MDGWCPGRDRRTEEENFRKKEEHCPELPPGSAKRALPTSTSSSPQQKKKPLDGEYFTLKIRGRERFEMFRELNEALELKDARAAEESGDSRAHSSYPKIVS
modifications: amino acid sequence of GSE56
amplitude of the p53-dependent transcriptional response (downstream target genes) [5]: reduce the amplitude of the p53-dependent transcriptional response | percentage of cells in S/G2/M phases ([1]; 24 hours after gene editing, FIG. 12A): partially rescued | cell cycle states (G1 to S/G2/M) [1]: lower and not significant | number of dominant clones in haematopoietic organs, vs standard [6]: 6.5 fold | APOBEC3H expression [2]: significantly down-regulated | expansion of treated HSPC ([7]; AAVS1 edited cells, FIG. 3D): higher expansion | cell growth compared to standard RNP+AAV6 ([7]; days post-editing, FIG. 14B): about 2 fold | engraftment of treated cells compared to standard protocol [8]: 5-6 fold | fraction of HDR-edited cells in the PB, average ([4]; 22 weeks post transplantation, IL2RG edited cells, FIG. 4D): 32% | engraftment in the haematopoietic organs ([4]; AAVS1, limited dose T0eq=1.5×10^5/mouse, FIG. 12C): significantly higher engraftment | percentage of human cells in the peripheral blood ([4]; CD40LG-edited cells, FIG. 13B): higher percentage of human cells | percentage of gene correction over time ([4]; CD40LG-edited cells, FIG. 13C): more stable percentage of gene correction over time | percentage of corrected cells in sorted cell types, vs standard ([4]; CD40LG-edited cells, endpoint, included CD34+ cells, FIG. 13E): 3- to 6 fold | differentiation output ([4]; IL2RG edited cells, PB lineages, FIG. 4C): without any skewing in the differentiation output | human CD45+ engraftment ([4]; IL2RG edited cells, PB of NSG mice, FIG. 4B): increased engraftment | engraftment of treated cells ([4]; discussion summary): higher engraftment of treated cells
